From paper PMC7004355 (PLoS ONE, 2020)
Residue numbers refer to the chain shown, from its start. In names and notes the source's numbering stands.

B1: OTC (E. coli ornithine transcarbamoylase, argI) (Escherichia coli K-12; H273L) (protein)
chain: SGFYHKHFLKLLDFTPAELNSLLQLAAKLKADKKSGKEEAKLTGKNIALIFEKDSTRTRCSFEVAAYDQGARVTYLGPSGSQIGHKESIKDTARVLGRMYDGIQYRGYGQEIVETLAEYASVPVWNGLTNEFHPTQLLADLLTMQEHLPGKAFNEMTLVYAGDARNNMGNSMLEAAALTGLDLRLVAPQACWPEAALVTECRALAQQNGGNITLTEDVAKGVEGADFIYTDVWVSMGEAKEKWAERIALLREYQVNSKMMQLTGNPEVKFLLCLPAFHDDQTTLGKKMAEEFGLHGGMEVTDEVFESAASIVFDQAENRMHTIKAVMVATLSK
notes: full length, uncleaved 6xHis tag, pCA24N ASKA clone, expressed in BL21(DE3) Tuner; homotrimer of 333-residue subunits
B2: OTC (E. coli ornithine transcarbamoylase, argI) (Escherichia coli K-12; E300Q) (protein)
chain: B1 chain with L272H, E299Q
notes: as for B1
B3: Escherichia coli ornithine transcarbamoylase (OTC), wild type, His-tagged (enzyme, E. coli)
chain: B1 chain with L272H
notes: Anabolic ornithine transcarbamoylase of E. coli, argI gene, 333-residue subunit; Expressed from the ASKA plasmid pCA24N; also called WT OTC; anabolic OTC; source: E. coli BL21 (DE3) Tuner, purified (HisTrap FF, Superdex 200 SEC)
B4: Escherichia coli ornithine transcarbamoylase (OTC) variant Y160F, His-tagged (enzyme, E. coli)
chain: B1 chain with Y160F, L272H
notes: Anabolic ornithine transcarbamoylase of E. coli, argI gene, 333-residue subunit; Made by site-directed mutagenesis of the ASKA pCA24N plasmid; 6x-His tag not cleaved; source: E. coli BL21 (DE3) Tuner, purified (HisTrap FF, Superdex 200 SEC)
B5: Escherichia coli ornithine transcarbamoylase (OTC) variant Y160S, His-tagged (enzyme, E. coli)
chain: B1 chain with Y160S, L272H
notes: as for B4
B6: OTC (E. coli ornithine transcarbamoylase, argI) (Escherichia coli K-12; R58A) (protein)
chain: B1 chain with R57A, L272H
notes: as for B1
B7: Escherichia coli ornithine transcarbamoylase (OTC) variant D231A, His-tagged (enzyme, E. coli)
chain: B1 chain with D231A, L272H
notes: as for B4
B8: OTC (E. coli ornithine transcarbamoylase, argI) (Escherichia coli K-12; D141N) (protein)
chain: B1 chain with D140N, L272H
notes: as for B1
B9: Escherichia coli ornithine transcarbamoylase (OTC) variant Y229S, His-tagged (enzyme, E. coli)
chain: B1 chain with Y229S, L272H
notes: as for B4
B10: Escherichia coli ornithine transcarbamoylase (OTC) variant S61A, His-tagged (enzyme, E. coli)
chain: B1 chain with S61A, L272H
notes: Anabolic ornithine transcarbamoylase of E. coli, argI gene, 333-residue subunit; Made by site-directed mutagenesis of the ASKA pCA24N plasmid; 6x-His tag not cleaved; also called negative control; source: E. coli BL21 (DE3) Tuner, purified (HisTrap FF, Superdex 200 SEC)
B11: Escherichia coli ornithine transcarbamoylase (OTC) variant Y229F, His-tagged (enzyme, E. coli)
chain: B1 chain with Y229F, L272H
notes: as for B4
B12: Escherichia coli ornithine transcarbamoylase (OTC) variant Q104L, His-tagged (enzyme, E. coli)
chain: B1 chain with Q104L, L272H
notes: as for B10

Columns and labels:
[1] = target: T1, OTC (E. coli ornithine transcarbamoylase, argI) (Escherichia coli, UniProt P04391); test: thermal shift (Sypro Orange); type: binding; conditions: absolute Tm, not dTm; 1 mM carbamoyl phosphate, 10 μM enzyme, 50 mM HEPES pH 8, 200 mM NaCl, 2 mM DTT
T1 construct: full length, uncleaved 6xHis tag, pCA24N ASKA clone, expressed in BL21(DE3) Tuner; homotrimer of 333-residue subunits
T1 sequence (P04391 2-334): B1 chain with L272H
Excerpt: thermal shift (Sypro Orange) on OTC (E. coli ornithine transcarbamoylase, argI)

purified protein [2] = substrate: NC(=O)OP(=O)(O)O; test: purified protein; type: biochemical, Escherichia coli; conditions: 50 mM Tris pH 8.5, 20 °C, 20 mM NaCl
purified protein [3] = substrate: NCCC[C@H](N)C(=O)O; test: purified protein; conditions: 50 mM Tris pH 8.5, 20 °C, 20 mM NaCl, carbamoyl phosphate 5 mM
[4] = target: the molecule itself; test: SEC-SAXS; in-line SEC-SAXS on a Superdex 200 5/150 GL column; enzyme at 4.3-5.5 mg/mL; apo state, and after incubation with 5 mM CP or 10 mM ORN; self-association of the enzyme (trimer)
[5] = ornithine 60 mM (variants with ORN KM above 3 mM)

Row | Molecule | Km (purified protein [2]; ornithine 3 mM) [µM] | kcat (purified protein [2]; ornithine 3 mM) [s⁻¹] | kcat/Km (purified protein [2]; ornithine 3 mM) [M⁻¹ s⁻¹] | Km (purified protein [3]) [µM] | kcat (purified protein [3]) [s⁻¹] | kcat/Km (purified protein [3]) [M⁻¹ s⁻¹] | binding result [4] | further results
1 | NC(=O)OP(=O)(O)O [CP, carbamoyl phosphate] |  |  |  |  |  |  |  | enzyme +cp [1]: 70 ± 0.5 °C
2 | B1 | 930 ± 580 | 4.2 ± 1.8 | 5000 ± 1100 |  |  |  |  | 
3 | B2 | 340 ± 110 | 4.6 ± 1 | 14000 ± 3300 | 330 ± 100 | 5.1 | 16000 |  | 
4 | B3 | 270 ± 34 | 410 ± 20 | 1.5e+06 ± 130000 | 530 ± 55 | 440 | 830000 |  | stoichiometry N [4]: 3
5 | B4 |  |  |  |  |  |  | binds | 
6 | B5 |  |  |  | 7300 ± 2000 | 410 | 61000 | binds | 
7 | B6 | 280 ± 27 | 7.5 ± 1.8 | 27000 ± 7300 | 440 ± 92 | 8.2 | 19000 |  | 
8 | B7 | 150 ± 42 | 0.48 ± 0.1 | 3400 ± 1300 | 590 ± 330 | 0.7 | 1400 | binds | 
9 | B8 |  |  |  | 17000 ± 5900 | 460 | 30000 |  | Km (purified protein [2]; [5]): 1400 ± 450 µM; kcat (purified protein [2]; [5]): 360 ± 59 s⁻¹; kcat/Km (purified protein [2]; [5]): 290000 ± 90000 M⁻¹ s⁻¹
10 | B9 |  |  |  |  |  |  | binds | 
11 | B10 |  |  |  |  |  |  | binds | 
12 | B11 |  |  |  |  |  |  | binds | 
13 | B12 |  |  |  |  |  |  | binds | 
